One block for each binder: values may come before it.
Key:
Experiment in all cases: not described
mouse PD-L1 = mouse PD-L1 (mouse, UniProt Q9EP73 19-239, limits assumed)
mouse OX40 = target: T1, mouse OX40 (mouse, UniProt P47741 20-272, limits assumed)
T1 construct: also called native mouse OX40
T1 sequence (looked up): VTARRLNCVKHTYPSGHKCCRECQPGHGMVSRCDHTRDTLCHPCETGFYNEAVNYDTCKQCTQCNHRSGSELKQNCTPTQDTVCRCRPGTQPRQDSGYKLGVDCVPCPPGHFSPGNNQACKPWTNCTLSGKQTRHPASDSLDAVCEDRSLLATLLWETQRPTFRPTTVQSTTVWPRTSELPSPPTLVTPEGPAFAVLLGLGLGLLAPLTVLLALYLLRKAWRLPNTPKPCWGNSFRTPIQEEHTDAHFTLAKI

human OX40 = target: T2, human OX40 (human, UniProt P43489 29-277)
T2 construct: The form used for the Y182A statement ('native') is not described; also called native human OX40; CD134
T2 sequence: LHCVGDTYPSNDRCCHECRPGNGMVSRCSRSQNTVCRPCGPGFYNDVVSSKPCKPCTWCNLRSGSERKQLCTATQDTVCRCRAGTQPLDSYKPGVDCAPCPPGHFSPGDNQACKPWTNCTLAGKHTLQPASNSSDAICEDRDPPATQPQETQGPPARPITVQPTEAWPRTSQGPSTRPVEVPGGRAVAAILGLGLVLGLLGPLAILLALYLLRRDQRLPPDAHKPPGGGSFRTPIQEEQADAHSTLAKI

Sequence of mouse PD-L1 (Q9EP73 19-239 limits assumed): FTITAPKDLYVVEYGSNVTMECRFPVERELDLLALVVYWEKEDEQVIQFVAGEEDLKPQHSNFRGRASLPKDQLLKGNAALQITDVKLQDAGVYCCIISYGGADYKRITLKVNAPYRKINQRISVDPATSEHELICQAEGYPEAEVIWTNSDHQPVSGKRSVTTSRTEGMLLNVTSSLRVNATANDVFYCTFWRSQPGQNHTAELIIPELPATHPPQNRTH

binding result (mouse PD-L1): no binding
B1: MEDI4736 (antibody, human IgG1, V domains shown)
VH: EVQLVESGGGLVQPGGSLRLSCAASGFTFSRYWMSWVRQAPGKGLEWVANIKQDGSEKYYVDSVKGRFTISRDNAKNSLYLQMNSLRAEDTAVYYCAREGGWFGELAFDYWGQGTLVTVSS
VL: EIVLTQSPGTLSLSPGERATLSCRASQRVSSSYLAWYQQKPGQAPRLLIYDASSRATGIPDRFSGSGSGTDFTLTISRLEPEDFAVYYCQQYGSLPWTFGQGTKVEIK
notes: also called 2.14H9OPT

binding result (mouse OX40): no binding
binding result (human OX40): no binding
B2: Y182A mutant mouse OX40L mouse IgG1 fusion protein control (Fc fusion, UniProt P43488 51-198, looked up)
chain: SSSPAKDPPIQRLRGAVTRCEDGQLFISSYKNEYQTMEVQNNSVVIKCDGLYIIYLKGSFFQEVKIDLHFREDHNPISIPMLNDGRRIVFTVVASLAFKDKVYLTVNAPDTLCEHLQINDGELIVVQLTPGACAPEGSYHSTVNQVPL
notes: also called OX40L FP Y182A; mOX40L FP Y182A; not shown: mouse IgG1 Fc domain and any linker or trimerization domain
